Consider one molecule from patent US20240327522A1 (Genentech, published 2024).

Test [1] concerns the target T1, recombinant human αvβ8 protein (PARS-17102) (human).
T1 construct: also called hu.aVb8.17102; not shown: C-terminal acid/basic coils and any purification tags
T1 alpha: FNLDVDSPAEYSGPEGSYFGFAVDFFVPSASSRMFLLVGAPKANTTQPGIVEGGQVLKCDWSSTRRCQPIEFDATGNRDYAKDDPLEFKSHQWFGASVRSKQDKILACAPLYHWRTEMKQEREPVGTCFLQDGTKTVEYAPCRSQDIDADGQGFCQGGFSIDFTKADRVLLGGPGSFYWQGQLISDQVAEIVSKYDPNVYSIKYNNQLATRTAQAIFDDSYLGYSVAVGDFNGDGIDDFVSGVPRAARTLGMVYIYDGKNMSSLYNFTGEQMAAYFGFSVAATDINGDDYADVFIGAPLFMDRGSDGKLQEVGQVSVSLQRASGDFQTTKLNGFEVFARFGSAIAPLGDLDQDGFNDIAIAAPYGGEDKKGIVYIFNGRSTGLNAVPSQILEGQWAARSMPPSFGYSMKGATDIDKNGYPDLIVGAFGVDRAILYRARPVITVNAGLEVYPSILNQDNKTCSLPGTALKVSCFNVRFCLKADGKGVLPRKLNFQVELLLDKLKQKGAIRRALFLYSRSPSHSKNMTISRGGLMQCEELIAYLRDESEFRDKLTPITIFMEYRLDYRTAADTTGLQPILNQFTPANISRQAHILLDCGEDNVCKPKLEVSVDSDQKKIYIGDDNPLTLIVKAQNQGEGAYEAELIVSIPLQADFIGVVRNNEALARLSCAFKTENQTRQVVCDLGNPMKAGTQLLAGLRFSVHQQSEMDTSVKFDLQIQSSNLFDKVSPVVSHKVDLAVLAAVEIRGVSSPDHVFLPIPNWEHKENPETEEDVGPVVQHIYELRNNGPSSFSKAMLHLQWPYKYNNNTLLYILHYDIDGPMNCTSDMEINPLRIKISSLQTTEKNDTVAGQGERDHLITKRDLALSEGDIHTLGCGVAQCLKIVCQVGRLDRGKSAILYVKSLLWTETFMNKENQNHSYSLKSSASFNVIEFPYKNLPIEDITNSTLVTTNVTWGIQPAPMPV
T1 beta: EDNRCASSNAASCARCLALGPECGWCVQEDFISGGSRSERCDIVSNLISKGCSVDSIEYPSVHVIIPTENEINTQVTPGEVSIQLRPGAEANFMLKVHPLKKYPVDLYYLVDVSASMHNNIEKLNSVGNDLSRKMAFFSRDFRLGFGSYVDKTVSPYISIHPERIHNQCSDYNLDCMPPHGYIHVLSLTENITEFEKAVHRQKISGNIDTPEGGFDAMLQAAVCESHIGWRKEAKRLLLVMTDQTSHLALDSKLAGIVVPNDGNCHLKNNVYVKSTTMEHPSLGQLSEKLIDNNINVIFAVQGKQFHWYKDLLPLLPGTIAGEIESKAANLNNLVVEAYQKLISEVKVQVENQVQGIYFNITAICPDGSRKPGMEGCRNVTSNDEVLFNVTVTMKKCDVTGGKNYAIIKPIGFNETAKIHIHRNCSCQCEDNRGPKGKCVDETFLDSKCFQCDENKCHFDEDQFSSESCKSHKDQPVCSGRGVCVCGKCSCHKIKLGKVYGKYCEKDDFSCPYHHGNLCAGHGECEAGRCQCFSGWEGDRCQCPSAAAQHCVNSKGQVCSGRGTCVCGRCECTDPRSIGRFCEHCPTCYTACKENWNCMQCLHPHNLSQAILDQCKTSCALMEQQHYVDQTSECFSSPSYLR
As to the kind of experiment: SPR, Biacore T200, Protein A capture, human αvβ8 analyte 0-100 nM, 37 C, 1:1 model (comparison with hC6D4, FIG. 9A). The method, then:
(§1) The antibodies were first captured either on a Biacore™ Protein A biosensor chip (Cytiva Life Sciences) or on an anti-murine Fc chip to achieve approximately 60 response units. Binding measurements were performed using a running buffer composed of 10 mM HEPES (pH 7.4), 150 mM NaCl, 0.5 mM CaCl₂), and 0.005% Surfactant P20 (Cytiva Life Sciences). For comparison between αvβ8-65 and hC6D4, a 5-fold dilution series of human αvβ8 (range, 0-100 nM in running buffer) was injected into the Biacore™ T200. For comparison between αvβ8-65 and hADWA11-2.4, a 5-fold dilution series of human αvβ8 (range, 0-100 nM in running buffer) was injected. For comparison of all three antibodies in the murine Fc format, a 5-fold dilution series of human αvβ8 (range, 0-50 nM in running buffer) was injected. All injections were performed over 180 seconds, with a dissociation time of 1200 seconds, at a flow rate of 100 μL/minute and a temperature of 37° C. Between sample injections, a regeneration reagent (10 mM glycine pH 1.5 for protein A chip; 10 mM glycine pH 1.7 for anti-murine Fc chip) was injected to regenerate the sensor chip (twice, over 30 seconds at 10 μL/minute for each injection). To determine the binding kinetics and affinity constants of the antibodies to human αvβ8 protein, the signal from the reference flow cell (FC1, with only protein A on the surface) was “double referenced” by subtracting the signal observed after injecting the sample over FC1, followed by subtracting the signal observed after injecting only running buffer. The kinetic constants were calculated using nonlinear regression fitting of the data, according to a 1:1 Langmuir binding model, using Biacore™ Evaluation Software (Cytiva Life Sciences).
(§2) The values of the kinetic constants kon, koff, and KD for the binding of αvβ8-65, hC6D4 and ADWA11-2.4 to the various species of αvβ8 proteins are summarized in Table 13. A 1:1 Langmuir binding model was used to determine the KD values. The sensograms observed for the bindings of the various αvβ8 proteins to the captured antibody are shown in FIG. 9A, FIG. 9B, and FIG. 10.
For orientation: In SPR one partner is held on a chip, and binding of the other changes the refractive index at the surface.

Test [2] addresses T2, recombinant mouse αvβ8 protein (PARS-17103) (murine, UniProt P43406 31-988; Q0VBD0 43-681, limits assumed).
T2 construct: Made in house; also called mu.aVb8.17103
As to the kind of experiment: SPR binding assay, experiment 1, antibody as ligand, aVb8 as sample.

For test [3], the target named is T1, recombinant human αvβ8 protein …. The test is described as above.
For test [4] the target is unchanged. As to the kind of experiment: SPR, Biacore T200, Protein A capture, human αvβ8 analyte 0-100 nM, 37 C, 1:1 model (comparison with hADWA11-2.4, FIG. 9B). As to the method:
as §1, §2

T2 sequence (P43406 31-988 limits assumed, chain 1 of 2): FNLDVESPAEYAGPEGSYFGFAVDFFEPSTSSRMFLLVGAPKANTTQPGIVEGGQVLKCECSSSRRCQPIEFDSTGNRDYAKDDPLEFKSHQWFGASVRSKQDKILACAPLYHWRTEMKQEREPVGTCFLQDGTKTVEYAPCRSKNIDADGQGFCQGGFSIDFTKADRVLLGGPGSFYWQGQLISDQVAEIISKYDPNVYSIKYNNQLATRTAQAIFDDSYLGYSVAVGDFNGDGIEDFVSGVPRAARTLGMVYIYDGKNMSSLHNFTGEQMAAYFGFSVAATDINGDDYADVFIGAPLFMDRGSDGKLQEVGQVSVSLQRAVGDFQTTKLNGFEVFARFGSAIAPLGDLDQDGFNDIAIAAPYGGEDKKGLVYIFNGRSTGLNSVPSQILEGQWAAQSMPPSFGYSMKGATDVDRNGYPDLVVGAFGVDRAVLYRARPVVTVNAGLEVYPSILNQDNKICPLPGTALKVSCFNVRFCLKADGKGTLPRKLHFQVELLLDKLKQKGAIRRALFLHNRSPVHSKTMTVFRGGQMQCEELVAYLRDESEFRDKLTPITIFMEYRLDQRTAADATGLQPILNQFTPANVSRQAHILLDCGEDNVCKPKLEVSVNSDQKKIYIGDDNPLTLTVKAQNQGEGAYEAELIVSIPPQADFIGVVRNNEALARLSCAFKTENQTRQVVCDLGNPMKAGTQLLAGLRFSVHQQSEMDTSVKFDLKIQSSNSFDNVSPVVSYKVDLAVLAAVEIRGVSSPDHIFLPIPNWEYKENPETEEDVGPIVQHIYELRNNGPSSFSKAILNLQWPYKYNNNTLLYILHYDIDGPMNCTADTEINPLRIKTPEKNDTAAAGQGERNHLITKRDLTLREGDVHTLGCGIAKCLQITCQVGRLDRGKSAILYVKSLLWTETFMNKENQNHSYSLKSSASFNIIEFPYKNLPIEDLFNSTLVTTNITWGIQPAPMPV
T2 sequence (Q0VBD0 43-681 limits assumed, chain 2 of 2): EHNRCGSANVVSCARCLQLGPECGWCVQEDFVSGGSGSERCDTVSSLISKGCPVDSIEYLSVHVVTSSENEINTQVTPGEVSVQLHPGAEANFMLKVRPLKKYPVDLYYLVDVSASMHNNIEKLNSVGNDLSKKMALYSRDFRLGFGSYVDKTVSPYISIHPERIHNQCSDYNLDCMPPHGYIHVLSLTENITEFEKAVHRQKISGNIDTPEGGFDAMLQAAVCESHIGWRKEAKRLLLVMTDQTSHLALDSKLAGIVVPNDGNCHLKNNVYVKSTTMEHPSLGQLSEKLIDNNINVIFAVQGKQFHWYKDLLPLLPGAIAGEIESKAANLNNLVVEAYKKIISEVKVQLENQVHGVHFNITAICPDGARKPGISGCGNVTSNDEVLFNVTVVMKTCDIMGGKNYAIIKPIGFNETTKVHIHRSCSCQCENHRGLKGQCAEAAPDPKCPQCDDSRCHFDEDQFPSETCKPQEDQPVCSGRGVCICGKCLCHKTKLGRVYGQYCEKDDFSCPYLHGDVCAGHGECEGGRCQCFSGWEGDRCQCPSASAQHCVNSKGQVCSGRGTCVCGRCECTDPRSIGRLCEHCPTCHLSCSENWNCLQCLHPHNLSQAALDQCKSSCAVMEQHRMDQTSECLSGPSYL

B1: Hu.aVb8-65.H15L2 (aVb8-65.H15L2.hIgG1.LALAPG) (antibody, V domains shown)
VH: EVQLLESGGGLVQPGGSLRLSCAASGIDLSNYAMIWVRQAPGKGLEWVGIISSSDRIWYASWVKGRFTISRDNSKNTLYLQMNSLRAEDTAVYYCSRSVSNSYFDGWNLWGQGTLVTVSS
VL: DIQMTQSPSSVSASVGDRVTITCQASENINSLLAWYQQKPGKAPKLLIYRASTLASGVPSRFSGSGSGTDFTLTISSLQPEDFATYYCQSNYGFTGSGAFFYGFGQGTKVEIKR
notes: Human IgG1 LALAPG; also called PARS-20475-65 (IH) aVb8-65.H15L2.hIgG1.LALAPG; humanized αvβ8-65
As usually defined, the Kd is a measure of binding affinity in units of concentration. As a reminder, the koff is the first-order rate constant of dissociation. For orientation: kon means the second-order rate constant of association. For the molecule B1, the Kd worked out at 1.01 nM in test [1], 0.906 nM in test [2], 0.384 nM in test [3] and 0.528 nM in test [4]. In addition, the koff in test [1] is 0.000169 s⁻¹; in test [2], 0.000155 s⁻¹; in test [3], 0.000208 s⁻¹; in test [4] it was 9.58e-05 s⁻¹. The kon in test [1] was 168000 M⁻¹ s⁻¹; in test [2], 171000 M⁻¹ s⁻¹; in test [3], 540000 M⁻¹ s⁻¹; in test [4], 181000 M⁻¹ s⁻¹.
